Patent US20260242465A1 (CELSIUS THERAPEUTICS, published 2026)

How the values were obtained:
hFcγRIIIA176V [1] = target: T1, hFcγRIIIA176V (human, UniProt P08637 17-208); assay: SPR (Biacore T200), single-cycle kinetics; replicate 1
T1 construct: Bought; also called FcγRIIIA (176V polymorphism); not shown: His tag
Excerpt: (§1) Human Fc receptors, FcγRI, FcγRII (both 167R and 167H polymorphisms), FcγRIIB, FcγRIIIA (both 176F and 176V polymorphisms) and FcγRIIIB were obtained from Sino Biological (Beijing, China). FcγR were captured on a CM5 sensor chip pre-coupled using a His capture kit (Cytiva, Uppsala, Sweden) using standard amine chemistry.
(§2) At the start of each cycle, His-tagged Fcγ receptors diluted in HBS-P+ (Cytiva, Uppsala, Sweden) were loaded to a specific RU level. A five point, three-fold dilution range of test antibody without regeneration between each concentration was used for each receptor tested. Antibodies were passed over the chip in increasing concentrations followed by a single dissociation step. Following dissociation, the chip was regenerated with two injections of glycine (pH 1.5).

hFcγRIIA167R [2] = target: T2, hFcγRIIA167R (human, UniProt P12318 34-218); assay: as above
T2 construct: also called FcγRII (167R polymorphism); not shown: His tag
T2 sequence (looked up): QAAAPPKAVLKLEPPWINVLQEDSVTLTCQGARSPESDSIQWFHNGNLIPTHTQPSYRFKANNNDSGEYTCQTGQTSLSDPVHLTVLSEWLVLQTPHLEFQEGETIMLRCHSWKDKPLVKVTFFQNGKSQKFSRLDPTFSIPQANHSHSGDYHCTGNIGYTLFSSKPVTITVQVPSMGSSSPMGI
Excerpt: as §1, §2

hFcγRIIIA176V [3] = target: T1, hFcγRIIIA176V; assay: SPR (Biacore T200), single-cycle kinetics; replicate 2
Excerpt: as §1, §2

hFcγRIIA167R [4] = target: T2, hFcγRIIA167R; assay: as above
Excerpt: as §1, §2

[5] = target: T3, human TREM2 expressed on HEK293 cells (human, UniProt Q9NZC2 19-230); assay: polyspecificity assay; flow cytometry on transfected HEK293 cells
T3 construct: whole, on cells; Named member of the array of more than 6,000 human membrane proteins; also called TREM2 (membrane protein array)
T3 sequence (looked up): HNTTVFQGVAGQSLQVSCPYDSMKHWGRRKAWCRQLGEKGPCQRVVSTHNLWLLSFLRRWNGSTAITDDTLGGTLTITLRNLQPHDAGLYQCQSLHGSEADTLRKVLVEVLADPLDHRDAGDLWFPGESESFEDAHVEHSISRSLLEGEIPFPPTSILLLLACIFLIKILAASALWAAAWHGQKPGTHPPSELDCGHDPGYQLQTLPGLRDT
Excerpt: Transient transfection was used to express an array of each of more than 6,000 human membrane proteins including TREM2 and other TREM family members on the surface of HEK293 cells. […] TMEM178A is an intracellular protein that localizes to the endoplasmic reticulum; see e.g., Decker et al., Proc. Natl. Acad. Sci., 112(51):15654-9 (2015).

[6] = target: T4, recombinant monovalent cynomolgus monkey TREM1-ECD (cynomolgus monkey); assay: BLI; antibody on AHC sensor, monovalent TREM1-ECD in solution
T4 construct: whole entry named; also called cyno TREM1-ECD
T4 chain: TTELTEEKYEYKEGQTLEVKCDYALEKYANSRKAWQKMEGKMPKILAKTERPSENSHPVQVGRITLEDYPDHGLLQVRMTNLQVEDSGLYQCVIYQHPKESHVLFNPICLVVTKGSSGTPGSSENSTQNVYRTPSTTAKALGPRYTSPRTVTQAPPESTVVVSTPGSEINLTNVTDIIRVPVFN
Excerpt: (§3) Sensors were monitored to establish a baseline.
(§4) The coefficient of determination of the 1:1 model fit to the BLI sensorgrams is represented by the R\hat{ }2 value. Data for human and cynomolgus monkey represents averages across three replicates. Data for pig, dog, rabbit, rat, and mouse represents averages across two replicates.

[7] = target: T5, recombinant monovalent pig TREM1-ECD (pig (Sus scrofa), UniProt Q6TYI6 21-210); assay: as above
T5 construct: whole entry named
T5 sequence: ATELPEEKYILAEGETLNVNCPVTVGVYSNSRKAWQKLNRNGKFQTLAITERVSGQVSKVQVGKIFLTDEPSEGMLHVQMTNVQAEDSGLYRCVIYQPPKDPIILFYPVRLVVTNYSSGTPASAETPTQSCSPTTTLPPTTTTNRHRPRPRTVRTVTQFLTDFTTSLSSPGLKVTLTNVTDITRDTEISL
Excerpt: as §3, §4

[8] = target: T6, recombinant monovalent dog TREM1-ECD (dog (Canis familiaris)); assay: as above
T6 construct: whole entry named
T6 chain: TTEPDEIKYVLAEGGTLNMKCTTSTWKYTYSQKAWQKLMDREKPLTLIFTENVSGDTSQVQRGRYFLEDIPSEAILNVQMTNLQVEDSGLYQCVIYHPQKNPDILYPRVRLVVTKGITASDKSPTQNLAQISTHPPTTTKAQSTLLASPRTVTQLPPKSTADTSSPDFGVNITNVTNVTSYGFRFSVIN
Excerpt: as §3, §4

[9] = target: T7, recombinant monovalent rabbit TREM1-ECD (rabbit); assay: as above
T7 construct: extracellular domain
Excerpt: as §3, §4

[10] = target: T8, recombinant monovalent mouse TREM1-ECD (mouse, UniProt Q9JKE2 21-202); assay: as above
T8 construct: whole entry named
T8 sequence: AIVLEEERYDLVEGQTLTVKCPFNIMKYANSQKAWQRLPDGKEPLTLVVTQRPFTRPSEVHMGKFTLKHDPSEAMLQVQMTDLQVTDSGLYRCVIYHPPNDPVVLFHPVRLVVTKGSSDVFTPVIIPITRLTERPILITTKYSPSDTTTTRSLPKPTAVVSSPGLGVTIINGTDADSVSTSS
Excerpt: as §3, §4

purified human C1q = target: T9, purified human C1q (human, UniProt P02745 23-245; P02746 28-253; P02747 29-245); assay: ELISA; antibody coated in serial dilutions, human C1q at 5 µg/ml, anti-C1q-HRP
T9 construct: Purified from HyCult Biotech; also called complement protein C1q
Procedure: Plates were blocked with IX PBS (pH 7.4) with 2% w/v BSA. After blocking, purified human C1q (HyCult Biotech, Wayne, Pennsylvania) at 5 μg/ml was added to the ELISA plates for binding, Plates were washed an anti-C1q-HRP (Abcam, Cambridge, UK) was diluted 1:1000 in blocking buffer and added to the ELISA plates for detection. After washing, TMB microwell peroxidase substrate (Life Technologies) was added for detection. The reaction was stopped with TMB stop solution (VWR, Lutterworth, Leicestershire) after 5 minutes. Absorbance was read at 450 nm using a SpectraMax M3 plate reader (Molecular Devices, Wokingham, UK).

hFcγRIIIA176V [11] = target: T1, hFcγRIIIA176V; assay: SPR (Biacore T200), single-cycle kinetics; His-tagged FcγR captured, antibody as analyte; replicate 1
Excerpt: as §1, §2

hFcγRIIA167R [12] = target: T2, hFcγRIIA167R; assay: as above
Excerpt: as §1, §2

hFcγRIIIA176V [13] = target: T1, hFcγRIIIA176V; assay: SPR (Biacore T200), single-cycle kinetics; His-tagged FcγR captured, antibody as analyte; replicate 2
Excerpt: as §1, §2

hFcγRIIA167R [14] = target: T2, hFcγRIIA167R; assay: as above
Excerpt: as §1, §2

[15] = target: T10, human TREM2-ECD fused to an Fc domain (human, UniProt Q9NZC2 19-174); assay: bio-layer interferometry, TREM2-ECD-Fc immobilised on the sensor, antibody in solution, maximum response
T10 construct: extracellular domain; the text tells one result for TREM2-ECD, so they are written as one molecule; also called human TREM2-ECD (BioLegend, 786404 and R&D Systems, 1828-T2-050); not shown: Fc domain
T10 sequence (looked up): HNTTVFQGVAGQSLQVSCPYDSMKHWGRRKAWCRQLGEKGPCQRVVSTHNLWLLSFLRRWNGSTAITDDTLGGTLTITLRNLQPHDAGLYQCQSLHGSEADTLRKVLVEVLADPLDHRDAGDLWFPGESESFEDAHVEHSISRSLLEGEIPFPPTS
Procedure: In addition to TREM1, the TREM gene family also includes TREM2. […] Without wishing to be bound by any particular theory, TREM1 and TREM2 are thought to play opposing roles in modulating immune responses; see e.g., Sharif and Knapp, Immunobiology, 213(9-10):701-713 (2008). […] Briefly, 10 μg/mL TREM2-ECD fused to an Fc domain was immobilized on a sensor. Sensors were quenched and monitored to establish a baseline. […] The maximum BLI response was measured (FIG. 13).

recombinant hTREM1-chFc1 [16] = target: T11, recombinant hTREM1-chFc1 (human); assay: BLI competition; hTREM1-chFc1 on AHC biosensor, antibody titrated 200 to 0.012 nM for 300 s, then 971 nM PGLYRP1 (competitor: PGLYRP1)
T11 construct: the whole entry is named; Captured on Octet AHC biosensors; also called immobilized TREM1-ECD; immobilized TREM1 protein
Procedure: (§5) The data was fitted with the sigmoidal (four-parameter) nonlinear regression equation. […] The data is from a single experiment that is representative of three replicates.
(§6) Briefly, recombinant hTREM1-chFc1 was immobilized on Octet AHC biosensors and then blocked with 100 μg/mL hIgG1-Fc. […] The incubation time between mAb and immobilized TREM1-ECD is limited to 300 s, thus limiting the amount of antibody that can bind to the immobilized TREM1, particularly at the sub-saturation concentrations.

[17] = target: T12, cynomolgus monkey TREM1 on neutrophils (cynomolgus monkey); assay: flow cytometry of whole blood, free TREM1 on neutrophils (percent of baseline) in cynomolgus monkeys dosed IV once weekly for 14 weeks
T12 construct: Endogenous receptor on neutrophils of dosed animals (receptor occupancy by flow cytometry); also called free TREM1 receptors on neutrophils (cynomolgus)
T12 chain: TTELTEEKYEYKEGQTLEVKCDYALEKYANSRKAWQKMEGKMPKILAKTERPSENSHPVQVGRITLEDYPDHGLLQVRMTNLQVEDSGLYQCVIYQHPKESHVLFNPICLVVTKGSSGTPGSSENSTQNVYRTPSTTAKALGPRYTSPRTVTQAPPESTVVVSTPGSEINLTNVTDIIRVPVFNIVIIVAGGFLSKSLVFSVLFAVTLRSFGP

recombinant hTREM1-chFc1 [18] = target: T11, recombinant hTREM1-chFc1; assay: bio-layer interferometry blocking assay: hTREM1-chFc1 on AHC biosensors, antibody titrated, then PGLYRP1 (blocked ligand, 971 nM per paragraph 383)
Procedure: as §5, §6

T1 sequence (P08637 17-208 F176V): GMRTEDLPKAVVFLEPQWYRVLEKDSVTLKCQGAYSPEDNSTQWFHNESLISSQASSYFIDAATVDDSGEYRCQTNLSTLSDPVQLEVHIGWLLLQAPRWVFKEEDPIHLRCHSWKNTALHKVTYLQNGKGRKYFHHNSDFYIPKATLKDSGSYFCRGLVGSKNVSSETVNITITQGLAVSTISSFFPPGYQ
T11 sequence (Q9NP99 21-205): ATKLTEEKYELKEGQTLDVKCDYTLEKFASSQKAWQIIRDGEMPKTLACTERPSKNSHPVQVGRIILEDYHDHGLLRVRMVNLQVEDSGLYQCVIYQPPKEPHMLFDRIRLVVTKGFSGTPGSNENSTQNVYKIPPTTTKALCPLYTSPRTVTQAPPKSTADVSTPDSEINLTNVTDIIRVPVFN
T9 sequence (P02745 23-245 limits assumed, chain 1 of 3): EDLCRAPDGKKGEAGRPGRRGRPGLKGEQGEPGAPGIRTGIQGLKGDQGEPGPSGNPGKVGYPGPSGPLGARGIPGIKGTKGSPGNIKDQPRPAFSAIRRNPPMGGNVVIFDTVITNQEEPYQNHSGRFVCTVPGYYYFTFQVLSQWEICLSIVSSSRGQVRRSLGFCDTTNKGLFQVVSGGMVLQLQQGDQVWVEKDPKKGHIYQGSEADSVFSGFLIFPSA
T9 sequence (P02746 28-253 limits assumed, chain 2 of 3): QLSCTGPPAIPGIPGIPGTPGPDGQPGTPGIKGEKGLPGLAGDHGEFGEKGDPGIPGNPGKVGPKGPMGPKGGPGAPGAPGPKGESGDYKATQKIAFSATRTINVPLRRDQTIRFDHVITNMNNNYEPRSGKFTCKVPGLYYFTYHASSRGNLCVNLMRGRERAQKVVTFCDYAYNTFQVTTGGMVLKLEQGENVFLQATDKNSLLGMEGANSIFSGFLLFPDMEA
T9 sequence (P02747 29-245 limits assumed, chain 3 of 3): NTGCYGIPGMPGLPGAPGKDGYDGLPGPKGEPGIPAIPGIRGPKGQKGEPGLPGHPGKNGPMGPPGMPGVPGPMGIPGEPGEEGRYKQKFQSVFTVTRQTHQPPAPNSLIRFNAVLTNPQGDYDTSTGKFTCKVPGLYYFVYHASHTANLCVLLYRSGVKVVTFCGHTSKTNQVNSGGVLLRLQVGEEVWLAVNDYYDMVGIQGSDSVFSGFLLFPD

B1: anti-TREM1 antibody agent clone A (antibody, human IgG1, kappa)
heavy: EVQLVESGGVLVQPGGSLRLSCAASGITFSNSWMSWVRQAPGKGLEWVANIKQDGSEKYYVDSVKGRFTISRDNAKESLFLQMNSLRAEDTAVYYCARGGISTFDIWGQGTMVTVSSASTKGPSVFPLAPSSKSTSGGTAALGCLVKDYFPEPVTVSWNSGALTSGVHTFPAVLQSSGLYSLSSVVTVPSSSLGTQTYICNVNHKPSNTKVDKKVEPKSCDKTHTCPPCPAPPVAGPSVFLFPPKPKDTLMISRTPEVTCVVVDVSHEDPEVKFNWYVDGVEVHNAKTKPREEQYNSTYRVVSVLTVLHQDWLNGKEYKCKVSNKALPAPIEKTISKAKGQPREPQVYTLPPSRDELTKNQVSLTCLVKGFYPSDIAVEWESNGQPENNYKTTPPVLDSDGSFFLYSKLTVDKSRWQQGNVFSCSVMHEALHNHYTQKSLSLSPGK
light: not shown
notes: heavy chain carries the IgG1 constant region with PVAdelG, light chain is kappa; also called anti-TREM1 clone A; Anti-TREM1 Antibody Clone A
For B1, the “Ratio (against Trastuzumab; not defined)” value (hFcγRIIIA176V [1]) was 0.05, the “Ratio (against Trastuzumab; not defined)” value (hFcγRIIA167R [2]) was 0.33 and the “Ratio (against Trastuzumab; not defined)” value (hFcγRIIIA176V [3]) was 0.05. For the same binder, the “Ratio (against Trastuzumab; not defined)” value (hFcγRIIA167R [4]) was 0.33, the binding result [5] was “no binding (tested: 5 µg/mL)” and the Kd [6] was 0.0019 µM. For the same binder, the “Maximum BLI response” value [6] was 0.343 nm, the “Maximum BLI response” value [7] was 0.013 nm and the “Maximum BLI response” value [8] was 0.006 nm. For the same binder, the “Maximum BLI response” value [9] was 0.005 nm, the “Maximum BLI response” value [10] was 0.005 nm and the binding result (purified human C1q) was “no binding”. It also gave a Kd (hFcγRIIIA176V [11]) of 6.66 µM, a Kd (hFcγRIIA167R [12]) of 28.4 µM and a Kd (hFcγRIIIA176V [13]) of 6.49 µM. For the same binder, the Kd (hFcγRIIA167R [14]) was 28.3 µM, the binding result [15] was “no binding (tested: 3 ug/mL)” and the IC50 (recombinant hTREM1-chFc1 [16]) was 0.0045 µM. For the same binder, the binding result [17] was “binds” and the “IC50 (read off the curve)” value (recombinant hTREM1-chFc1 [18]) was ~0.005 µM.
